Reference: US20220040297A1 (Chugai, published 2022)

Target: T1, CD3ε homodimer protein (human, UniProt P07766 23-126, limits assumed)
T1 construct: also called human CD3ε homodimer protein; CD3e homodimer
Test: SPR (Biacore T200, 25°C); CD3ε homodimer immobilized on CM4, one-arm antibody as analyte

T1 sequence (P07766 23-126 limits assumed): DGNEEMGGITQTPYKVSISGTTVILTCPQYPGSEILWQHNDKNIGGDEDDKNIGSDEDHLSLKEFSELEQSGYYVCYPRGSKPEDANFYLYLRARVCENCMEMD

Kd | Binder
71 nM | NNS6f50 (antibody, one-arm antibody) heavy: QVQLVESGGGLVQPGRSLRLSCAASGFTFSNAWMHWVRQAPGKGLEWVAQIKDKSNNYATYYAESVKGRFTISRDDSKNSIYLQMNSLKTEDTAVYYCRYVHYAALTGGLGYYGVDAWGQGTTVTVSSASTKGPSVFPLAPSSKSTSGGTAALGCLVKDYFPEPVTVSWNSGALTSGVHTFPAVLQSSGLYSLSSVVTVPSSSLGTQTYICNVNHKPSNTKVDKKVEPKSCDKTHTCPPCPAPEAAGGPSVFLFPPKPKDTLMISRTPEVTCVVVDVSHEDPEVKFNWYVDGVEVHNAKTKPREEQYASTYRVVSVLTVLHQDWLNGKEYKCKVSNKALPAPIEKTISKAKGQPREPQVYTLPPSRCELTKNQVSLSCAVKGFYPSDIAVEWESNGQPENNYKTTPPVLDSDGSFFLVSKLTVDKSRWQQGNVFSCSVMHEALHNHYTQKSLSLSPDYKDDDDK EPKSSDKTHTCPPCPAPELLGGPSVFLFPPKPKDTLMISRTPEVTCVVVDVSHEDPEVKFNWYVDGVEVHNAKTKPREEQYNSTYRVVSVLTVLHQDWLNGKEYKCKVSNKALPAPIEKTISKAKGQPREPQVCTLPPSRDELTKNQVSLWCLVKGFYPSDIAVEWESNGQPENNYKTTPPVLDSDGSFFLYSKLTVDKSRWQQGNVFSCSVMHEALHNRYTQKSLSLSP light: DIVMTQSPLSLPVTPGEPASISCRSSQSLVHSNRNTYLHWYQQKPGQAPRLLIYKVSNRFSGVPDRFSGSGSGTDFTLKISRVEAEDVGVYYCGQGTQVPYTFGQGTKLEIKRTVAAPSVFIFPPSDEQLKSGTASVVCLLNNFYPREAKVQWKVDNALQSGNSQESVTEQDSKDSTYSLSSTLTLSKADYEKHKVYACEVTHQGLSSPVTKSFNRGEC
44 nM | NNS6f58 (antibody, one-arm antibody) heavy: QVQLVESGGGLVQPGRSLRLSCAASGFTFSNAWMHWVRQAPGKGLEWVAQIKDKSNNYATYYAESVKGRFTISRDDSKNSIYLQMNSLKTEDTAVYYCRYVHYAASWQVSRYYGVDAWGQGTTVTVSSASTKGPSVFPLAPSSKSTSGGTAALGCLVKDYFPEPVTVSWNSGALTSGVHTFPAVLQSSGLYSLSSVVTVPSSSLGTQTYICNVNHKPSNTKVDKKVEPKSCDKTHTCPPCPAPEAAGGPSVFLFPPKPKDTLMISRTPEVTCVVVDVSHEDPEVKFNWYVDGVEVHNAKTKPREEQYASTYRVVSVLTVLHQDWLNGKEYKCKVSNKALPAPIEKTISKAKGQPREPQVYTLPPSRCELTKNQVSLSCAVKGFYPSDIAVEWESNGQPENNYKTTPPVLDSDGSFFLVSKLTVDKSRWQQGNVFSCSVMHEALHNHYTQKSLSLSPDYKDDDDK EPKSSDKTHTCPPCPAPELLGGPSVFLFPPKPKDTLMISRTPEVTCVVVDVSHEDPEVKFNWYVDGVEVHNAKTKPREEQYNSTYRVVSVLTVLHQDWLNGKEYKCKVSNKALPAPIEKTISKAKGQPREPQVCTLPPSRDELTKNQVSLWCLVKGFYPSDIAVEWESNGQPENNYKTTPPVLDSDGSFFLYSKLTVDKSRWQQGNVFSCSVMHEALHNRYTQKSLSLSP light: DIVMTQSPLSLPVTPGEPASISCRSSQSLVHSNRNTYLHWYQQKPGQAPRLLIYKVSNRFSGVPDRFSGSGSGTDFTLKISRVEAEDVGVYYCGQGTQVPYTFGQGTKLEIKRTVAAPSVFIFPPSDEQLKSGTASVVCLLNNFYPREAKVQWKVDNALQSGNSQESVTEQDSKDSTYSLSSTLTLSKADYEKHKVYACEVTHQGLSSPVTKSFNRGEC
21 nM | NNS6f56 (antibody, one-arm antibody) heavy: QVQLVESGGGLVQPGRSLRLSCAASGFTFSNAWMHWVRQAPGKGLEWVAQIKDKSNNYATYYAESVKGRFTISRDDSKNSIYLQMNSLKTEDTAVYYCRYVHYAAREATRWYYGVDAWGQGTTVTVSSASTKGPSVFPLAPSSKSTSGGTAALGCLVKDYFPEPVTVSWNSGALTSGVHTFPAVLQSSGLYSLSSVVTVPSSSLGTQTYICNVNHKPSNTKVDKKVEPKSCDKTHTCPPCPAPEAAGGPSVFLFPPKPKDTLMISRTPEVTCVVVDVSHEDPEVKFNWYVDGVEVHNAKTKPREEQYASTYRVVSVLTVLHQDWLNGKEYKCKVSNKALPAPIEKTISKAKGQPREPQVYTLPPSRCELTKNQVSLSCAVKGFYPSDIAVEWESNGQPENNYKTTPPVLDSDGSFFLVSKLTVDKSRWQQGNVFSCSVMHEALHNHYTQKSLSLSPDYKDDDDK EPKSSDKTHTCPPCPAPELLGGPSVFLFPPKPKDTLMISRTPEVTCVVVDVSHEDPEVKFNWYVDGVEVHNAKTKPREEQYNSTYRVVSVLTVLHQDWLNGKEYKCKVSNKALPAPIEKTISKAKGQPREPQVCTLPPSRDELTKNQVSLWCLVKGFYPSDIAVEWESNGQPENNYKTTPPVLDSDGSFFLYSKLTVDKSRWQQGNVFSCSVMHEALHNRYTQKSLSLSP light: DIVMTQSPLSLPVTPGEPASISCRSSQSLVHSNRNTYLHWYQQKPGQAPRLLIYKVSNRFSGVPDRFSGSGSGTDFTLKISRVEAEDVGVYYCGQGTQVPYTFGQGTKLEIKRTVAAPSVFIFPPSDEQLKSGTASVVCLLNNFYPREAKVQWKVDNALQSGNSQESVTEQDSKDSTYSLSSTLTLSKADYEKHKVYACEVTHQGLSSPVTKSFNRGEC
31 nM | NNS6f55 (antibody, one-arm antibody) heavy: QVQLVESGGGLVQPGRSLRLSCAASGFTFSNAWMHWVRQAPGKGLEWVAQIKDKSNNYATYYAESVKGRFTISRDDSKNSIYLQMNSLKTEDTAVYYCRYVHYAAAGRWLAYYGVDAWGQGTTVTVSSASTKGPSVFPLAPSSKSTSGGTAALGCLVKDYFPEPVTVSWNSGALTSGVHTFPAVLQSSGLYSLSSVVTVPSSSLGTQTYICNVNHKPSNTKVDKKVEPKSCDKTHTCPPCPAPEAAGGPSVFLFPPKPKDTLMISRTPEVTCVVVDVSHEDPEVKFNWYVDGVEVHNAKTKPREEQYASTYRVVSVLTVLHQDWLNGKEYKCKVSNKALPAPIEKTISKAKGQPREPQVYTLPPSRCELTKNQVSLSCAVKGFYPSDIAVEWESNGQPENNYKTTPPVLDSDGSFFLVSKLTVDKSRWQQGNVFSCSVMHEALHNHYTQKSLSLSPDYKDDDDK EPKSSDKTHTCPPCPAPELLGGPSVFLFPPKPKDTLMISRTPEVTCVVVDVSHEDPEVKFNWYVDGVEVHNAKTKPREEQYNSTYRVVSVLTVLHQDWLNGKEYKCKVSNKALPAPIEKTISKAKGQPREPQVCTLPPSRDELTKNQVSLWCLVKGFYPSDIAVEWESNGQPENNYKTTPPVLDSDGSFFLYSKLTVDKSRWQQGNVFSCSVMHEALHNRYTQKSLSLSP light: DIVMTQSPLSLPVTPGEPASISCRSSQSLVHSNRNTYLHWYQQKPGQAPRLLIYKVSNRFSGVPDRFSGSGSGTDFTLKISRVEAEDVGVYYCGQGTQVPYTFGQGTKLEIKRTVAAPSVFIFPPSDEQLKSGTASVVCLLNNFYPREAKVQWKVDNALQSGNSQESVTEQDSKDSTYSLSSTLTLSKADYEKHKVYACEVTHQGLSSPVTKSFNRGEC
52 nM | NNS6f52 (antibody, one-arm antibody) heavy: QVQLVESGGGLVQPGRSLRLSCAASGFTFSNAWMHWVRQAPGKGLEWVAQIKDKSNNYATYYAESVKGRFTISRDDSKNSIYLQMNSLKTEDTAVYYCRYVHYAAYMLGLGYYGVDAWGQGTTVTVSSASTKGPSVFPLAPSSKSTSGGTAALGCLVKDYFPEPVTVSWNSGALTSGVHTFPAVLQSSGLYSLSSVVTVPSSSLGTQTYICNVNHKPSNTKVDKKVEPKSCDKTHTCPPCPAPEAAGGPSVFLFPPKPKDTLMISRTPEVTCVVVDVSHEDPEVKFNWYVDGVEVHNAKTKPREEQYASTYRVVSVLTVLHQDWLNGKEYKCKVSNKALPAPIEKTISKAKGQPREPQVYTLPPSRCELTKNQVSLSCAVKGFYPSDIAVEWESNGQPENNYKTTPPVLDSDGSFFLVSKLTVDKSRWQQGNVFSCSVMHEALHNHYTQKSLSLSPDYKDDDDK EPKSSDKTHTCPPCPAPELLGGPSVFLFPPKPKDTLMISRTPEVTCVVVDVSHEDPEVKFNWYVDGVEVHNAKTKPREEQYNSTYRVVSVLTVLHQDWLNGKEYKCKVSNKALPAPIEKTISKAKGQPREPQVCTLPPSRDELTKNQVSLWCLVKGFYPSDIAVEWESNGQPENNYKTTPPVLDSDGSFFLYSKLTVDKSRWQQGNVFSCSVMHEALHNRYTQKSLSLSP light: DIVMTQSPLSLPVTPGEPASISCRSSQSLVHSNRNTYLHWYQQKPGQAPRLLIYKVSNRFSGVPDRFSGSGSGTDFTLKISRVEAEDVGVYYCGQGTQVPYTFGQGTKLEIKRTVAAPSVFIFPPSDEQLKSGTASVVCLLNNFYPREAKVQWKVDNALQSGNSQESVTEQDSKDSTYSLSSTLTLSKADYEKHKVYACEVTHQGLSSPVTKSFNRGEC
